Data taken from patent US6531296B1, “Nuclear tyrosine kinase Rak” (The University of North Carolina at Chapel Hill, priority 1995, dated 2003).
Like-named read-outs stand apart in the source and are kept apart here.

T1: pRb (Homo sapiens, UniProt P06400)
T1 construct: incubated with cell lysates from SK-BR-3 breast cancer cells; endogenous in cells; host or cells: SK-BR-3
T1 sequence (P06400 1-928): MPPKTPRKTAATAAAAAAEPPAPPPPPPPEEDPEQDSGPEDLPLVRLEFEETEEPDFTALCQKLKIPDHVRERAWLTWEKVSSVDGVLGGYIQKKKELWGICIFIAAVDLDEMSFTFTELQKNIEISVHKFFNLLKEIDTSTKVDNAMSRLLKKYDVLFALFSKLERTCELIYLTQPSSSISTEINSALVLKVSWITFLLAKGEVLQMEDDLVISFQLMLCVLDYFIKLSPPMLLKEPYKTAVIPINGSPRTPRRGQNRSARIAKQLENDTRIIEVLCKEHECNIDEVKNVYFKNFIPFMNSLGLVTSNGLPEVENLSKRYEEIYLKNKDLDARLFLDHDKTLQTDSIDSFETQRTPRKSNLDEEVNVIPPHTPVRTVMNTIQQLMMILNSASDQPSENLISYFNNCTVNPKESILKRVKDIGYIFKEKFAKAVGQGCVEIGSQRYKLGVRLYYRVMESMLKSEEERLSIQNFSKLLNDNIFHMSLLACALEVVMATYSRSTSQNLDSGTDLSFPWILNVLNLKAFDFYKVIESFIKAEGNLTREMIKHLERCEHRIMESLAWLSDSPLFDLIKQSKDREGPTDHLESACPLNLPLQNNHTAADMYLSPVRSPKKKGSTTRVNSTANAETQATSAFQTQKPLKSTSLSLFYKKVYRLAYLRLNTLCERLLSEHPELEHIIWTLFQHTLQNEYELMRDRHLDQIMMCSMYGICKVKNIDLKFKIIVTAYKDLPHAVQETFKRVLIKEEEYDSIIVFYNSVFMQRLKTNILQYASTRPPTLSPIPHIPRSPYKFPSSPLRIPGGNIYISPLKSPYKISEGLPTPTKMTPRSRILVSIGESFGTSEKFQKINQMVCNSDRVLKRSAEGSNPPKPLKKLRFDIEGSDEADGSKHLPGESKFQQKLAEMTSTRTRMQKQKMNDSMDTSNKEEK

B1: RAKΔ86:GST: RakNT GST fusion protein with amino acids 86-110 (CDC2 binding site) deleted (protein, UniProt P42685 1-85, looked up, fragment)
chain: MSNICQRLWEYLEPYLPCLSTEADKSTVIENPGALCSPQSQRHGHYFVALFDYQARTAEDLSFRAGDKLQVLDTLHEGWWFARHL
modifications: GST fusion
B2: Rak-NT:GST: first 110 amino acids of Rak (SEQ ID NO:2) as bacterial fusion protein with Glutathione-S transferase (protein)
chain: MSNICQRLWEYLEPYLPCLSTEADKSTVIENPGALCSPQSQRHGHYFVALFDYQARTAEDLSFRAGDKLQVLDTLHEGWWFARHLEKRRDGSSQQLQGYIPSNYVAEDRS
modifications: left off: a dimerising Fc or GST; large carriers; small tags and cut ends

Legend:
CDC2 [1] = molecular target: T2, CDC2 (Homo sapiens, UniProt P06493); experiment: In vitro kinase assay of immunoprecipitated CDC2 with Histone H1 as exogenous substrate; assay type: biochemical; design: incubated with immunoprecipitated CDC2; endogenous in cells
Experimental: The 110 N-terminal amino acids of Rak were produced as a GST fusion protein (RAKNT:GST) and incubated with immunoprecipitated CDC2, and subjected to an in vitro kinase assay with Histone H1 added as an exogenous substrate, and analyzed by SDS-PAGE. […] This fusion protein was incubated with immunoprecipitated CDC2, and subjected to an in vitro kinase assay with Histone H1 added as an exogenous substrate, and analyzed by SDS-PAGE.
The CDC2 binding domain of RAK appears to be between amino acids 86-110. Since the binding of RAK to CDC2 is exceptionally strong, the biological function of this interaction was explored.

Cdk4 = molecular target: T3, Cdk4 (Homo sapiens, UniProt P11802); experiment: Affinity precipitation from BT474 lysate with Rak N-terminal GST fusion protein; assay type: binding; settings: BT474 cell lysate
T3 construct: endogenous in cells; host or cells: BT474
Experimental: (§1) For affinity precipitations, 250 ug of cell lysate was pre-cleared once with 25 ul of glutathione-sepharose beads (Pharmacia) then once with 25 ul of the same beads containing 2 ug/ml Glutathione S-transferase. The lysate was then incubated with 25 ul of GST-RakNT bound to glutathione-sepharose, in a total volume of 500 ul of NP-40 lysis buffer, for 3 hours at 4° C. The beads were then washed three times in NP-40 Lysis Buffer and the bound proteins were eluted with SDS-PAGE sample loading buffer. pRb binding was assessed by Western blot analysis with the G3-245 antibody at 1 ug/ml.
(§2) Because the N-terminus is frequently responsible for protein-protein interactions in Src-related kinases, the proteins that bind to this region were characterized. The N-terminal 110 amino acids of Rak were expressed as a bacterial fusion protein with Glutathione S-transferase, and were incubated with cell lysates from BT474 breast cancer cells. In this assay, binding of RAK to the cyclin-dependent kinases Cdc2 and Cdk4 was detected, but binding to Cdk5, Cdk6, or Cdk7 was not detected (data not shown).

Shc = experiment: Affinity precipitation from SK-BR-3 lysate with GST-RakNT; assay type: binding, human; settings: SK-BR-3 cell lysate
Experimental: as §1
(§3) Results and Discussion: To test whether Rak and pRb physically interact, the first 110 amino acids of Rak (first 110 amino acids of SEQ ID NO:2), where the predicted interacting peptides reside were prepared as a bacterial fusion protein with the Glutathione-S transferase gene (Rak-NT:GST), and incubated with cell lysates from SK-BR-3 breast cancer cells, and bound proteins were analyzed by Western blotting. Glutathione-S transferase alone was used as the control. […] In contrast, binding of Rak to proteins that interact with the SH3 domains of other members of the Src family, such as GAP-associated p62 or Shc, was not found (data not shown).

Cdk7 = molecular target: T4, Cdk7 (Homo sapiens, UniProt P50613); experiment: Affinity precipitation from BT474 lysate with Rak N-terminal GST fusion protein; assay type: binding; settings: BT474 cell lysate
T4 construct: endogenous in cells; host or cells: BT474
Experimental: as §1, §2

Cdk6 = molecular target: T5, Cdk6 (Homo sapiens, UniProt Q00534); experiment: as above; assay type: binding; settings: BT474 cell lysate
T5 construct: endogenous in cells; host or cells: BT474
Experimental: as §1, §2

Cdk5 = molecular target: T6, Cdk5 (Homo sapiens, UniProt Q00535); experiment: as above; assay type: binding; settings: BT474 cell lysate
T6 construct: endogenous in cells; host or cells: BT474
Experimental: as §1, §2

CDC2 [2] = molecular target: T2, CDC2; experiment: as above; assay type: binding; design: endogenous in cells; host or cells: BT474; settings: BT474 cell lysate
Experimental: as §1, §2

GAP-associated p62 = molecular target: T7, GAP-associated p62 (Homo sapiens, UniProt Q07666); experiment: Affinity precipitation from SK-BR-3 lysate with GST-RakNT; assay type: binding; settings: SK-BR-3 cell lysate
T7 construct: incubated with cell lysates from SK-BR-3 breast cancer cells; endogenous in cells; host or cells: SK-BR-3
Experimental: as §1, §3

pRb = molecular target: T1, pRb; experiment: Affinity precipitation from SK-BR-3 lysate with GST-RakNT, Western blot for pRb; assay type: binding; settings: SK-BR-3 cell lysate, GST alone as control
Experimental: Affinity Precipitations. DNA fragments encoding the amino terminal region of Rak were prepared using the polymerase chain reaction with Pyrococcus furiosus DNA polymerase (Stratagene), and cloned into the pGEX-4T plasmid (Pharmacia). Rb fusion proteins encoding amino acids 379-928 (RbABC, containing the A/B pocket region and the COOH-terminal domain) and 780-928 (RbC for COOH terminal domain only), were prepared similarly. The GST fusion proteins were induced and purified according to the manufacturer's instructions, and were analyzed by SDS-PAGE to ensure that an equal amount of protein was used for the affinity precipitation procedure.
For affinity precipitations, 250 ug of cell lysate was pre-cleared once with 25 ul of glutathione-sepharose beads (Pharmacia) then once with 25 ul of the same beads containing 2 ug/ml Glutathione S-transferase. […]
Results and Discussion: To test whether Rak and pRb physically interact, the first 110 amino acids of Rak (first 110 amino acids of SEQ ID NO:2), where the predicted interacting peptides reside were prepared as a bacterial fusion protein with the Glutathione-S transferase gene (Rak-NT:GST), and incubated with cell lysates from SK-BR-3 breast cancer cells, and bound proteins were analyzed by Western blotting. […]

T2 sequence (P06493 whole entry, the tested form may be a part): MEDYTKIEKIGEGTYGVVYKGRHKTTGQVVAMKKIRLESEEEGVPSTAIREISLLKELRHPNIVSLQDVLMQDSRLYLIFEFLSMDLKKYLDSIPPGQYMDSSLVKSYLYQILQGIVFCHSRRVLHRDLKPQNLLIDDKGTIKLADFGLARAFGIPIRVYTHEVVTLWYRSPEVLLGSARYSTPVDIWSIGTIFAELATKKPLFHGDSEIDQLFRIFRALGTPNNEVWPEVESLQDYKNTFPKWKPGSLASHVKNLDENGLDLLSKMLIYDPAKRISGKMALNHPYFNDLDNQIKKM
T3 sequence (P11802 whole entry, the tested form may be a part): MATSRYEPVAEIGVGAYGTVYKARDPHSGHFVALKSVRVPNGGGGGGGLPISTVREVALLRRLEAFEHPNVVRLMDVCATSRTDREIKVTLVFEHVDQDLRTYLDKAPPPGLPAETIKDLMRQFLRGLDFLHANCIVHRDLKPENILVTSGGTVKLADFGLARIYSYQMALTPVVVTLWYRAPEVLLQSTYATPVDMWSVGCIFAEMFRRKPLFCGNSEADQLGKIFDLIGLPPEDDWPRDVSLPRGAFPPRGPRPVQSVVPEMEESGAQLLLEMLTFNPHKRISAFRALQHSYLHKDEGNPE
Chain of Shc (P29353 156-583 limits assumed): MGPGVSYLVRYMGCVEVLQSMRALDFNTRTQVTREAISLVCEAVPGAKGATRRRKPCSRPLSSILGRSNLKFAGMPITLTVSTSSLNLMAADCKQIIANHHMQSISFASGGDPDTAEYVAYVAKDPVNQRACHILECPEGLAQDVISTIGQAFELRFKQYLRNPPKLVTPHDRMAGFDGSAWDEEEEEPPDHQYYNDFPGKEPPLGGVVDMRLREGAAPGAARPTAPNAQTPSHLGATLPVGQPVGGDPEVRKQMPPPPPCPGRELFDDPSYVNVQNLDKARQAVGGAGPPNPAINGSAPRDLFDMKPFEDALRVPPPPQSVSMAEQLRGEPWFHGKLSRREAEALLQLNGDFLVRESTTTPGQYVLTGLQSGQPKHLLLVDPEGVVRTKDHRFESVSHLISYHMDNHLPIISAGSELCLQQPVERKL
T7 sequence (Q07666 whole entry): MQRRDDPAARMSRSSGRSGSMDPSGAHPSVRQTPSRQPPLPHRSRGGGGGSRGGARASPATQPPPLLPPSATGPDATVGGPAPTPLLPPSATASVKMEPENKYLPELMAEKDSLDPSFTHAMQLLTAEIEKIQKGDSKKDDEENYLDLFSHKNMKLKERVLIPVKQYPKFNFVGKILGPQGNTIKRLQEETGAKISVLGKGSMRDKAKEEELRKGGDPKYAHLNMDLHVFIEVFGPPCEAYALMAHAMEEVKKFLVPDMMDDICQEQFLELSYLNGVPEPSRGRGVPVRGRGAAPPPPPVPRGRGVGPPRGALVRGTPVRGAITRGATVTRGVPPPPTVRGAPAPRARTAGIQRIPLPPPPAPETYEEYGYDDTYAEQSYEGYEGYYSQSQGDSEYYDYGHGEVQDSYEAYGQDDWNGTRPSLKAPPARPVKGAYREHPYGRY
T5 sequence (Q00534 whole entry): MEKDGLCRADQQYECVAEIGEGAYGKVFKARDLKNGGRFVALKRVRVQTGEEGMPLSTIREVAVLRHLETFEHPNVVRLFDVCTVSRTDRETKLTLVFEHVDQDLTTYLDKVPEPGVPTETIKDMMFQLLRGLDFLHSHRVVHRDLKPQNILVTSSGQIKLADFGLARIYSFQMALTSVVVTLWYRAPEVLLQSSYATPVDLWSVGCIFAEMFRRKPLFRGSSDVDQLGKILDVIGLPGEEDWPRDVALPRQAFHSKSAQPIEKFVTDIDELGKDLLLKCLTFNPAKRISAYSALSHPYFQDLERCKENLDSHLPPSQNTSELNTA
T4 sequence (P50613 whole entry, the tested form may be a part): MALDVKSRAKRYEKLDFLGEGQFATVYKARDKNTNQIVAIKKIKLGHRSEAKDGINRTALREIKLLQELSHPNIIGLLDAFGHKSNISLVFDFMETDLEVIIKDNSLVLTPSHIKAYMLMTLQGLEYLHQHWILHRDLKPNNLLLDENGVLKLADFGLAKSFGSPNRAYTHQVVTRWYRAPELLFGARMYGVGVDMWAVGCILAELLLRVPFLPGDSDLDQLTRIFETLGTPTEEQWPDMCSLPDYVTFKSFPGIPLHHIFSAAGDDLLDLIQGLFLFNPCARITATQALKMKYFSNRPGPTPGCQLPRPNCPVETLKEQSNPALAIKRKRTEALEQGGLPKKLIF
T6 sequence (Q00535 whole entry): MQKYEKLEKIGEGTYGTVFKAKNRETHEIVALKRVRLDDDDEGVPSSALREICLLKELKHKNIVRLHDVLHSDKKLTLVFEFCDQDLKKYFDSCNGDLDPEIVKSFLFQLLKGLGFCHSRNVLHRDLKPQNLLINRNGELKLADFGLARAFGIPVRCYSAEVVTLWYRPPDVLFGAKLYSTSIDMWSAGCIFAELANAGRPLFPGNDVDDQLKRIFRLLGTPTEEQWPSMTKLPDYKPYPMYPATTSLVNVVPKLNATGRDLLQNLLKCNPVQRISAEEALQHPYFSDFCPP

| Molecule | inhibition of CDC2 histone H1 phosphorylation activity (CDC2 [1]) | binding to Cdk4 (Cdk4) | binding to Shc (Shc) | inhibition of CDC2 histone H1 phosphorylation activity (CDC2 [1]; listed as RAK-SH3:GST) | inhibition of CDC2 histone H1 phosphorylation activity (CDC2 [1]; listed as RakNT fusion protein) | binding to Cdk7 (Cdk7) | binding to Cdk6 (Cdk6) | binding to Cdk5 (Cdk5) | binding to Cdc2 (CDC2 [2]) | binding to GAP-associated p62 (GAP-associated p62) | pRb binding (pRb) |
| --- | --- | --- | --- | --- | --- | --- | --- | --- | --- | --- | --- |
| B1 | greatly diminished CDC2 inhibitory activity | did not affect binding | – | – | – | – | – | – | – | – | – |
| B2 | – | detected | not found | able to block CDC2 histone H1 activity | reduction of CDC2 histone H1 phosphorylation activity | not detected | not detected | not detected | detected | not found | bound |
